According to patent US20230181640A1 (SHANGHAI ABELZETA, published 2023):
Numbering of substitutions follows the chain as printed.

T1: hBCMA-ECD-Fc (fusion protein of human BCMA extracellular domain Met1-Ala54 and human IgG1 Fc fragment … (human, UniProt Q02223 1-54))
T1 construct: range 1-54; also the immunogen; also called soluble extracellular domain of human BCMA; not shown: human IgG1 Fc fragment, Pro100-Lys330
T1 sequence (looked up): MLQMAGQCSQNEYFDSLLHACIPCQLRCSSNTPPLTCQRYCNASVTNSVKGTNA

T2: Recombinant human TACI/TNFRSF13B Fc chimeric protein, CF (hTACI-ECD-Fc) (human, UniProt O14836 1-165)
T2 construct: extracellular domain; bought reagent; not shown: Fc part of the bought chimera is not described
T2 sequence (looked up): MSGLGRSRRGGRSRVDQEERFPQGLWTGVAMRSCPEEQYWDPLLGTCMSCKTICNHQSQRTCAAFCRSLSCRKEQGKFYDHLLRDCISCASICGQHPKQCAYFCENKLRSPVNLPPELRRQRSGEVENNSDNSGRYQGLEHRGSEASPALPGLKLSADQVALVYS

T3: human BCMA on cells (L-BCMA+, K562-BCMA+, A549-BCMA-1D6) (human, UniProt Q02223 1-184)
T3 construct: whole, on cells; the cell line of each assay is named under assay; also called L-BCMA-1E6-A4; K562-BCMA-B22D8
T3 sequence (looked up): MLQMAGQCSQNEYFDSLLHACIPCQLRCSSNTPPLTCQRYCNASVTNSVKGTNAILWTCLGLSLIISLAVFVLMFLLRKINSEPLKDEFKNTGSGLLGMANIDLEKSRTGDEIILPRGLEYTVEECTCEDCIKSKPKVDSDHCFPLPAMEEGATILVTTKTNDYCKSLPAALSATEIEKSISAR

B1: hybridoma antibody 105C10F1 (mAb004) (antibody, IgG2b, V domains shown)
VH: EVKLLQSGGGLVQPGGSLKLSCAASGIDFSRYWMSWVRRAPGKGLEWIGEINPDSSTINYAPSLKDKFIISRDAAKNTLYLQMSKVRSEDTALYYCATLYYDYDGDYAMDYWGQGTSVTVSS
VL: DIVMTPSQKFMSTSVGDRVSVTCKASQNVGTNVAWYQQKPGQSPKALIYSASYRYSGVPDRFTGSGSGTDFTLTISNVQSEDLAEYFCQHYNSYPFTFGSGTKLEIK
notes: murine hybridoma antibody, IgG2b,κ; re-named CP03; also called CP03
B2: hybridoma antibody 102A12H6 (mAb003) (antibody, IgG1, V domains shown)
VH: EVQLQQSGPELVKPGASVKISCKASGYSFTGYYMNWVKQSPEKSLEWIGEINSSTGGTTYNQKFKAKATMTVDKSSNTAYMELKSLTSEDSAVYYCRYYGSDWHFDVWGTGTTVTVSS
VL: QIVLTQSPALMSASPGEKVTMTCSASSSVSYMYWYQQKPRSSPKPWIYLTSSLASGVPARFSGSGSGTSYSLTISTMEAEDAATYYCQQWSSDPLTFGAGTKLELK
notes: murine hybridoma antibody, IgG1,κ
B3: hybridoma antibody 109C5F3C1 (mAb010) (antibody, V domains shown)
VH: EVQLQQSGPVLVKPGASVKMSCKVSGYTFTDYYMNWVKQSHGKSLEWIGVITPYNGANRYNQKFKGKATLTVDKSSSTAYMEVSSLTSEDSAVYYCARGDSIYVMDYWGQGTSVIVSS
VL: not shown
notes: murine; re-named CP06; also called CP06
B4: hybridoma antibody 6G10-1D7 (mAb001) (antibody, IgG1, V domains shown)
VH: EVQLQQSGPELVKPGASMKISCKASDYSFTDYIMTWVKQSHGKNLEWIGLINPYNGGTTYNQKFKDKATFTVDKSSTTAYMDLLSLTSEDSAVYYCARRGITTDYYTMDYWGQGTSVTVSS
VL: DIVMTQSQRFMSTSVGDRVSITCKASQSVGTAVAWYQQTPGQFPKLLIYSTSNRYTGVPDRFTGSGSGTDFTLTISNMQSEDLADYFCQQYSTYPLTFGSGTKLELK
notes: tested as supernatant and purified; also called CP01
B5: hybridoma antibody 99B3G3 (mAb002) (antibody, IgG1, V domains shown)
VH: EVQLQQSGPVLVKPGASVKMSCKASGYTFTDLYMNWVKQSHGKSLEWIGVINPYNGGTSYNQKFKAKATLTVDKSSITAYMELNSLTSEDSAVYYCARGDSIYVMDYWGQGTSVTVSS
VL: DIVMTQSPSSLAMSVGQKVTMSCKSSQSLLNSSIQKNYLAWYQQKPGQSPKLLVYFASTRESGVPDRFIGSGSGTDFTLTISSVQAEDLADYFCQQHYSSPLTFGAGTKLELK
notes: murine hybridoma antibody, IgG1,κ; re-named CP02; also called CP02
B6: hybridoma clone 97B8G8D12 (antibody, V domains shown)
VH: B5 VH
VL: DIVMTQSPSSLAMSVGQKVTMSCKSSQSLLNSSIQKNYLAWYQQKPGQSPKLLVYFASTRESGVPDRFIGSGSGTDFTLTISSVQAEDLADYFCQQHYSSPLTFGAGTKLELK
notes: murine hybridoma supernatant; gave no antibody in small-batch production
B7: hybridoma antibody 100H2D12C6 (mAb009) (antibody, IgG1, V domains shown)
VH: B5 VH
VL: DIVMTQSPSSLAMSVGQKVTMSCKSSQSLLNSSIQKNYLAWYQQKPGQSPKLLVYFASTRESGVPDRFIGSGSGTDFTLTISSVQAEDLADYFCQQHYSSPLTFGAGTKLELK
notes: murine, IgG1,κ
B8: hybridoma antibody 143D6F4 (mAb011) (antibody, IgG2b, V domains shown)
VH: B5 VH with L32Y, Y33S, M34L, I51V, Y60H, A66G, I77S, G99P
VL: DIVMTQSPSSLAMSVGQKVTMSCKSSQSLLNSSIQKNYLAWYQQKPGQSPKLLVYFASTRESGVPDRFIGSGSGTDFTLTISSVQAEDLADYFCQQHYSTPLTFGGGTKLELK
notes: murine, IgG2b,κ; re-named CP07; also called CP07
B9: hybridoma antibody 151A9A4 (mAb012) (antibody, IgG2b, V domains shown)
VH: B5 VH with L32Y, Y33S, M34L, I51V, S59T, A66G, I77S, G99P, Y107S
VL: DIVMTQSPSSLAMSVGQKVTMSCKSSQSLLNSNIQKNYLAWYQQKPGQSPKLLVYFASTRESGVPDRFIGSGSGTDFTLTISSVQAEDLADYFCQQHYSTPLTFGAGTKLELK
notes: murine, IgG2b,κ; re-named CP08; also called CP08
B10: hybridoma clone 107A9A4D2 (antibody, V domains shown)
VH: B5 VH with V37L, S44R, A66G, I77S, E82D, V114F
VL: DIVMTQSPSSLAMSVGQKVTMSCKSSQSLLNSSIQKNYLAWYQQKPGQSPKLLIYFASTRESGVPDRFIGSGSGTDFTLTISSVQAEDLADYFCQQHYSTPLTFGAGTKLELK
notes: murine hybridoma supernatant
B11: hybridoma clone 107A11F1B7 (antibody, V domains shown)
VH: B5 VH with V37L, S44R, A66G, I77S, E82D, V114F
VL: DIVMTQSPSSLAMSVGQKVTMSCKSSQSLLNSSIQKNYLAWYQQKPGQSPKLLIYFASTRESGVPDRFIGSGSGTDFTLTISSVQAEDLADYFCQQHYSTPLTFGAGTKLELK
notes: murine hybridoma supernatant; re-named CP04; also called CP04
B12: hybridoma antibody 113B3F12 (mAb008) (antibody, IgG2b, V domains shown)
VH: EVQLQQSGPVLVKPGASVKMSCKASGYTFTDYYMNWVKQSHGKSLEWIGVINPYNGGTDYNQKFKGKATLTVDKSSSTAYMELNSLTSEDSAVYYCARRRESYGTSYQGAYFDSWGQGTTLTVSS
VL: DIQMTQTTSSLSASLGDRVTISCRASQDISNYLNWYQQKPDGTVKLLIYYTSRLHSGVPSRFSGSGSGTDYSLSISDLEQEDIATYFCQQVITLPWTFGGGTKLEIK
notes: murine hybridoma antibody, IgG2b,κ
B13: hybridoma antibody 152D8E8 (mAb013) (antibody, IgG1, V domains shown)
VH: QVTLKESGPGILQSSQTLSLTCSFSGFSLNTSGMGVNWIRQSSGKDLEWLAHIYWNDDKRYNPSLKSRLTISKDTSRNQVFLRITSVDATDTATYFCCRSRLSFDYWGHGTTLTVSS
VL: DIKMTQSPSSMYVSLGERVTITCKASQDINRNLSWFQQKPGKSPKTLIYRANRLVDGVPLRFSGSGSGQDYSLTISSLEYEDMGIYYCLQYDEFPRTFGGGTKLEIK
notes: murine, IgG1,κ; re-named CP09; also called CP09
B14: chimeric antibody of hybridoma 6G10-1D7 (antibody, human IgG1, kappa, V domains shown)
VH: B4 VH
VL: DIVMTQSQRFMSTSVGDRVSITCKASQSVGTAVAWYQQTPGQFPKLLIYSTSNRYTGVPDRFTGSGSGTDFTLTISNMQSEDLADYFCQQYSTYPLTFGSGTKLELKR
notes: IgG1,κ chimeric antibody, HEK 293T supernatant
B15: chimeric antibody of hybridoma 99B3G3 (antibody, human IgG1, kappa, V domains shown)
VH: B5 VH
VL: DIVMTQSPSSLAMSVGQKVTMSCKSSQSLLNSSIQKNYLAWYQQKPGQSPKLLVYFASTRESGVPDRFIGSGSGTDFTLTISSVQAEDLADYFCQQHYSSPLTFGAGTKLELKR
notes: as for B14
B16: chimeric antibody 107A9A4D2VH/VL-2 (antibody, human IgG1, kappa, V domains shown)
VH: B5 VH with V37L, S44R, A66G, I77S, E82D, V114F
VL: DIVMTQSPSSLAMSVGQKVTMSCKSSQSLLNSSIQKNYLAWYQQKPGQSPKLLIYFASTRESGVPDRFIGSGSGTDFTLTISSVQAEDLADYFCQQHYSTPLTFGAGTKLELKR
notes: IgG1,κ chimeric antibody, HEK 293T supernatant; also called 107A9A4D2VH paired with 107A9A4D2VL-2

Molecular target: T1, hBCMA-ECD-Fc (fusion protein of human …)
Assay: ELISA, hybridoma supernatant

| Binder | ELISA (OD450 nm) [OD450] |
| --- | --- |
| B1 | 3.42 |
| B2 | 3.6 |
| B3 | 3.57 |
| B4 | 2.9 |
| B5 | 3.68 |
| B6 | 3.06 |
| B7 | 3.37 |
| B8 | 3.26 |
| B9 | 3.34 |
| B10 | 3.51 |
| B11 | 3.53 |
| B12 | 3.9 |

Molecular target: T4, cynoBCMA-ECD-Fc (machin BCMA extracellular domain Fc fusion) (machin)
T4 construct: extracellular domain; also called soluble extracellular domain of machin BCMA
Assay: ELISA, hybridoma supernatant

| Binder | ELISA (OD450 nm) [OD450] |
| --- | --- |
| B1 | 0.18 |
| B2 | 3.53 |
| B3 | 3.41 |
| B4 | 1.95 |
| B5 | 3.65 |
| B6 | 3.37 |
| B7 | 3.48 |
| B8 | 3.4 |
| B9 | 3.4 |
| B10 | 3.58 |
| B11 | 3.5 |
| B12 | 0.18 |
| B13 | 3.31 |

Molecular target: T5, Recombinant hFc fusion protein control (NC-Fc)
T5 construct: negative control antigen of the screens; also called NC-hFc
Assay: ELISA, hybridoma supernatant

| Binder | ELISA (OD450 nm) [OD450] |
| --- | --- |
| B1 | 0.1 |
| B2 | 0.12 |
| B3 | 0.57 |
| B4 | 0.08 |
| B5 | 0.14 |
| B6 | 0.13 |
| B7 | 0.13 |
| B8 | 0.2 |
| B9 | 0.24 |
| B12 | 0.14 |
| B13 | 0.23 |

Molecular target: T1, hBCMA-ECD-Fc (fusion protein of human …)
Assay: ELISA, purified hybridoma antibody

| Binder | EC50 [pM] |
| --- | --- |
| B1 | 38 |
| B2 | 58 |
| B3 | 180 |
| B4 | 34 |
| B5 | 32 |
| B7 | 33 |
| B8 | 150 |
| B9 | 170 |
| B12 | 150 |

Molecular target: T4, cynoBCMA-ECD-Fc (machin BCMA …)
Assay: ELISA, purified hybridoma antibody

| Binder | EC50 [pM] |
| --- | --- |
| B2 | 62 |
| B3 | 180 |
| B5 | 230 |
| B7 | 33 |
| B8 | 170 |
| B9 | 150 |

Molecular target: T2, Recombinant human TACI/TNFRSF13B Fc …
Assay: ELISA, purified hybridoma antibody

| Binder | binding result |
| --- | --- |
| B1 | no binding |
| B2 | no binding |
| B3 | no binding |
| B4 | no binding |
| B5 | no binding |
| B7 | no binding |
| B8 | no binding |
| B9 | no binding |
| B13 | no binding |

Molecular target: T1, hBCMA-ECD-Fc (fusion protein of human …)
Assay: ELISA, chimeric antibody supernatant; also: test concentration or dose not given here

| Binder | ELISA (OD450 nm) [OD450] |
| --- | --- |
| B14 | 2.35 |
| B15 | 2.3 |
| B16 | 2.45 |

Molecular target: T3, human BCMA on cells (L-BCMA+, …)
Assay: FACS, hybridoma supernatant, BCMA+ cells; also: test concentration or dose not given here

| Binder | FACS (MFI) |
| --- | --- |
| B1 | 1960 |
| B2 | 762 |
| B3 | 2890 |
| B4 | 3880 |
| B5 | 1930 |
| B6 | 358 |
| B7 | 1140 |
| B8 | 1510 |
| B9 | 2920 |
| B10 | 4650 |
| B11 | 5180 |
| B12 | 3890 |

Molecular target: T3, human BCMA on cells (L-BCMA+, …)
Assay: FACS, chimeric antibody supernatant, L-BCMA+ cells; also: test concentration or dose not given here

| Binder | FACS (MFI) |
| --- | --- |
| B14 | 3470 |
| B15 | 2180 |
| B16 | 525 |
